The record followed here is the supplement of paper PMC3353916.

± gives the standard deviation of the averaged measurements.

This data set deals with Sindbis virus TE/5'2J-GFP. Nature of the data set: percent infected (GFP+ in RFP+ ISG-expressing cells); higher = more infection (less antiviral activity). The protocol: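 Confirmatory testing of 87 ISGs. Triplicate wells of BHK/HA-Zeo (control) or BHK/NZAP-Zeo (ZAP) cells were transduced with lentiviruses co-expressing a human ISG plus TagRFP, then infected 48 h later with SINV TE/5'2J-GFP (moi 5). The % GFP+ cells among RFP+ cells was measured by flow cytometry at 8 h post infection. Fluc lentivirus served as control. Three independent experiments.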

Setting [1] is: experiment: confirmatory screen 1, BHK/HA-Zeo (control).
Setting [2] is: experiment: confirmatory screen 1, BHK/NZAP-Zeo (ZAP).
The mark [3] stands for this setting: experiment: confirmatory screen 2, BHK/HA-Zeo (control).
[4] abbreviates: experiment: confirmatory screen 2, BHK/NZAP-Zeo (ZAP).
Where [5] appears, read: experiment: confirmatory screen 3, BHK/HA-Zeo (control).
The mark [6] stands for this setting: experiment: confirmatory screen 3, BHK/NZAP-Zeo (ZAP).
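Also: Interferon-defective BHK-21 derivatives, ZAP line overexpressing the rat ZAP N-terminal zinc finger domain fused to Zeocin resistance, GFP scored within live singlet TagRFP+ cells.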

On to “MLRGISQLPAVATMSWVLLPVLWLIVQTQAIAIKQTPELTLHEIVCPKKLHILHKREIKNNQTEKHGKEERYEPEVQYQMILNGEEIILSLQKTKHLLGPDYTETLYSPRGEEITTKPENMEHCYYKGNILNEKNSVASISTCDGLRGYFTHHHQRYQIKPLKSTDEKEHAVFTSNQEEQDPANHTCGVKSTDGKQGPIRISRSLKSPEKEDFLRAQKYIDLYLVLDNAFYKNYNENLTLIRSFVFDVMNLLNVIYNTIDVQVALVGMEIWSDGDKIKVVPSASTTFDNFLRWHSSNLGKKIHDHAQLLSGISFNNRRVGLAASNSLCSPSSVAVIEAKKKNNVALVGVMSHELGHVLGMPDVPFNTKCPSGSCVMNQYLSSKFPKDFSTSCRAHFERYLLSQKPKCLLQAPIPTNIMTTPVCGNHLLEVGEDCDCGSPKECTNLCCEALTCKLKPGTDCGGDAPNHTTE [ADAMDEC1]”, for which the percent infected is, setting by setting: under setting [1], 94 ± 2.1%; under setting [2], 66.9 ± 6.3%; under setting [3], 96.2 ± 0.17%; under setting [4], 95.52 ± 0.43%; under setting [5], 94.82 ± 0.19%; under setting [6], 94.56 ± 0.34%.
In the case of “MNTRNRVVNSGLGASPASRPTRDPQDPSGRQGELSPVEDQREGLEAAPKGPSRESVVHAGQRRTSAYTLIAPNINRRNEIQRIAEQELANLEKWKEQNRAKPVHLVPRRLGGSQSETEVRQKQQLQLMQSKYKQKLKREESVRIKKEAEEAELQKMKAIQREKSNKLEEKKRLQENLRREAFREHQQYKTAEFLSKLNTESPDRSACQSAVCGPQSSTWKLPILPRDHSWARSWAYRDSLKAEENRKLQKMKDEQHQKSELLELKRQQQEQERAKIHQTEHRRVNNAFLDRLQGKSQPGGLEQSGGCWNMNSGNSWGI [EPSTI1]”, the percent infected was 96.8 ± 1.1% under setting [1]; 68.2 ± 2.1% under setting [2]; 96.8 ± 1.1% under setting [3]; 95.946 ± 0.041% under setting [4]; 94.88 ± 0.77% under setting [5]; 94.41 ± 0.1% under setting [6].
For “MPSLWDRFSSSSTSSSPSSLPRTPTPDRPPRSAWGSATREEGFDRSTSLESSDCESLDSSNSGFGPEEDTAYLDGVSLPDFELLSDPEDEHLCANLMQLLQESLAQARLGSRRPARLLMPSQLVSQVGKELLRLAYSEPCGLRGALLDVCVEQGKSCHSVGQLALDPSLVPTFQLTLVLRLDSRLWPKIQGLFSSANSPFLPGFSQSLTLSTGFRVIKKKLYSSEQLLIEEC [DDIT4]”, the percent infected runs as follows: under setting [1], 95.2 ± 1.2%; under setting [2], 76.2 ± 2.5%; under setting [3], 96.4 ± 0.11%; under setting [4], 94.99 ± 0.17%; under setting [5], 94.1 ± 0.29%; under setting [6], 92.99 ± 0.24%.
“MSSILPFTPPIVKRLLGWKKGEQNGQEEKWCEKAVKSLVKKLKKTGQLDELEKAITTQNVNTKCITIPRSLDGRLQVSHRKGLPHVIYCRLWRWPDLHSHHELRAMELCEFAFNMKKDEVCVNPYHYQRVETPVLPPVLVPRHTEIPAEFPPLDDYSHSIPENTNFPAGIEPQSNIPETPPPGYLSEDGETSDHQMNHSMDAGSPNLSPNPMSPAHNNLDLQPVTYCEPAFWCSISYYELNQRVGETFHASQPSMTVDGFTDPSNSERFCLGLLSNVNRNAAVELTRRHIGRGVRLYYIGGEVFAECLSDSAIFVQSPNCNQRYGWHPATVCKIPPGCNLKIFNNQEFAALLAQSVNQGFEAVYQLTRMCTIRMSFVKGWGAEYRRQTVTSTPCWIELHLNGPLQWLDKVLTQMGSPSIRCSSVS [SMAD3]”: the percent infected amounted to 77.4 ± 2.3% under setting [1]; 40.7 ± 1.2% under setting [2]; 93.92 ± 0.8% under setting [3]; 94.56 ± 0.45% under setting [4]; 80.2 ± 1.3% under setting [5]; 88.2 ± 1.7% under setting [6].
Turning to “MRSRLLLSVAHLPTIRETTEEMLLGGPGQEPPPSPSLDDYVRSISRLAQPTSVLDKATAQGQPRPPHRPAQACRKGRPAVSLRDITARFSGQQPTLPMADTVDPLDWLFGESQEKQPSQRDLPRRTGPSAGLWGPHRQMDSSKPMGAPRGRLCEARMPGHSLARPPQDGQQSSDLRSWTFGQSAQAMASRHRPRPSSVLRTLYSHLPVIHEL [C10orf10]”, the percent infected is, setting by setting: under setting [1], 94.8 ± 1.7%; under setting [2], 63.9 ± 6.1%; under setting [3], 95.247 ± 0.086%; under setting [4], 94.42 ± 0.28%; under setting [5], 94.16 ± 0.87%; under setting [6], 92.8 ± 0.27%.
Substance “MALAPERAAPRVLFGEWLLGEISSGCYEGLQWLDEARTCFRVPWKHFARKDLSEADARIFKAWAVARGRWPPSSRGGGPPPEAETAERAGWKTNFRCALRSTRRFVMLRDNSGDPADPHKVYALSRELCWREGPGTDQTEAEAPAAVPPPQGGPPGPFLAHTHAGLQAPGPLPAPAGDKGDLLLQAVQQSCLADHLLTASWGADPVPTKAPGEGQEGLPLTGACAGGPGLPAGELYGWAVETTPSPGPQPAALTTGEAAAPESPHQAEPYLSPSPSACTAVQEPSPGALDVTIMYKGRTVLQKVVGHPSCTFLYGPPDPAVRATDPQQVAFPSPAELPDQKQLRYTEELLRHVAPGLHLELRGPQLWARRMGKCKVYWEVGGPPGSASPSTPACLLPRNCDTPIFDFRVFFQELVEFRARQRRGSPRYTIYLGFGQDLSAGRPKEKSLVLVKLEPWLCRVHLEGTQREGVSSLDSSSLSLCLSSANSLYDDIECFLMELEQPA [IRF7]” yielded a percent infected under setting [1] of 72 ± 5.6%; a percent infected under setting [2] of 7.66 ± 2.9%; a percent infected under setting [3] of 95.59 ± 0.13%; a percent infected under setting [4] of 92 ± 0.75%; a percent infected under setting [5] of 69.3 ± 3.4%; a percent infected under setting [6] of 32.8 ± 18%.
For the substance MAFF, the percent infected was determined as 92.89 ± 0.73% under setting [1]; 70.1 ± 7.5% under setting [2]; 94.1 ± 0.95% under setting [3]; 93.98 ± 0.15% under setting [4]; 93.24 ± 0.65% under setting [5]; 91.23 ± 0.34% under setting [6].
Take PCTK2: the percent infected by setting is: under setting [1], 97.15 ± 0.48%; under setting [2], 70.7 ± 3.2%; under setting [3], 96.52 ± 0.12%; under setting [4], 94.42 ± 0.39%; under setting [5], 83.84 ± 0.21%; under setting [6], 86.8 ± 1.1%.
Consider “MAVMEMACPGAPGSAVGQQKELPKAKEKTPPLGKKQSSVYKLEAVEKSPVFCGKWEILNDVITKGTAKEGSEAGPAAISIIAQAECENSQEFSPTFSERIFIAGSKQYSQSESLDQIPNNVAHATEGKMARVCWKGKRRSKARKKRKKKSSKSLAHAGVALAKPLPRTPEQESCTIPVQEDESPLGAPYVRNTPQFTKPLKEPGLGQLCFKQLGEGLRPALPRSELHKLISPLQCLNHVWKLHHPQDGGPLPLPTHPFPYSRLPHPFPFHPLQPWKPHPLESFLGKLACVDSQKPLPDPHLSKLACVDSPKPLPGPHLEPSCLSRGAHEKFSVEEYLVHALQGSVSSGQAHSLTSLAKTWAARGSRSREPSPKTEDNEGVLLTEKLKPVDYEYREEVHWATHQLRLGRGSFGEVHRMEDKQTGFQCAVKKVRLEVFRAEELMACAGLTSPRIVPLYGAVREGPWVNIFMELLEGGSLGQLVKEQGCLPEDRALYYLGQALEGLEYLHSRRILHGDVKADNVLLSSDGSHAALCDFGHAVCLQPDGLGKSLLTGDYIPGTETHMAPEVVLGRSCDAKVDVWSSCCMMLHMLNGCHPWTQFFRGPLCLKIASEPPPVREIPPSCAPLTAQAIQEGLRKEPIHRVSAAELGGKVNRALQQVGGLKSPWRGEYKEPRHPPPNQANYHQTLHAQPRELSPRAPGPRPAEETTGRAPKLQPPLPPEPPEPNKSPPLTLSKEESGMWEPLPLSSLEPAPARNPSSPERKATVPEQELQQLEIELFLNSLSQPFSLEEQEQILSCLSIDSLSLSDDSEKNPSKASQSSRDTLSSGVHSWSSQAEARSSSWNMVLARGRPTDTPSYFNGVKVQIQSLNGEHLHIREFHRVKVGDIATGISSQIPAAAFSLVTKDGQPVRYDMEVPDSGIDLQCTLAPDGSFAWSWRVKHGQLENRP [MAP3K14]”, for which the percent infected by setting is: under setting [1], 96.4 ± 1.2%; under setting [2], 76.4 ± 1.8%; under setting [3], 97.1 ± 0.15%; under setting [4], 92.2 ± 0.5%; under setting [5], 86.1 ± 1.7%; under setting [6], 80.9 ± 2.1%.
The substance “MRSARSTALNRGEQRAVRYYSHMKLNMAEEEDYMSDSFINVQEDIRPGLPMLRQIREARRKEEKQQEANLKNRQKSLKEEEQERRDIGLKNALGCENKGFALLQKMGYKSGQALGKSGGGIVEPIPLNIKTGKSGIGHEASLKRKAEEKLESYRKKIHMKNQAEEKAAEQFRMRLKNKQDEMKLEGDLRRSQRACQQLDVQKNIQVPREAWYWLRLEEETEEDEEEKEQDEDEYKSEDLSVLEKLQILTSYLREEHLYCIWCGTAYEDKEDLSSNCPGPTSADHD [CCDC75]” came in with a percent infected under setting [1] of 93.8 ± 1.8%; a percent infected under setting [2] of 56.8 ± 4.7%; a percent infected under setting [3] of 96.02 ± 0.47%; a percent infected under setting [4] of 95.39 ± 0.41%; a percent infected under setting [5] of 94.54 ± 0.85%; a percent infected under setting [6] of 92.82 ± 0.32%.
With “MHLCGGNGLLTQTDPKEQQRQLKKQKNRAAAQRSRQKHTDKADALHQQHESLEKDNLALRKEIQSLQAELAWWSRTLHVHERLCPMDCASCSAPGLLGCWDQAEGLLGPGPQGQHGCREQLELFQTPGSCYPAQPLSPGPQPHDSPSLLQCPLPSLSLGPAVVAEPPVQLSPSPLLFASHTGSSLQGSSSKLSALQPSLTAQTAPPQPLELEHPTRGKLGSSPDNPSSALGLARLQSREHKPALSAATWQGLVVDPSPHPLLAFPLLSSAQVHF [BATF2]”, the percent infected is 90.1 ± 2.7% under setting [1]; 63.14 ± 0.42% under setting [2]; 95.85 ± 0.33% under setting [3]; 94.92 ± 0.24% under setting [4]; 93.14 ± 0.36% under setting [5]; 91.04 ± 0.55% under setting [6].
On to “MSLRGSLSRLLQTRVHSILKKSVHSVAVIGAPFSQGQKRKGVEHGPAAIREAGLMKRLSSLGCHLKDFGDLSFTPVPKDDLYNNLIVNPRSVGLANQELAEVVSRAVSDGYSCVTLGGDHSLAIGTISGHARHCPDLCVVWVDAHADINTPLTTSSGNLHGQPVSFLLRELQDKVPQLPGFSWIKPCISSASIVYIGLRDVDPPEHFILKNYDIQYFSMRDIDRLGIQKVMERTFDLLIGKRQRPIHLSFDIDAFDPTLAPATGTPVVGGLTYREGMYIAEEIHNTGLLSALDLVEVNPQLATSEEEAKTTANLAVDVIASSFGQTREGGHIVYDQLPTPSSPDESENQARVRI [ARG2]”, for which the percent infected is, setting by setting: under setting [1], 93.279 ± 0.073%; under setting [2], 64 ± 4.9%; under setting [3], 95.82 ± 0.36%; under setting [4], 95.52 ± 0.29%; under setting [5], 92.68 ± 0.49%; under setting [6], 93.532 ± 0.087%.
